Earlier results in PMC7261628.

Biological target: Cathepsin B propeptide (prosegment) (UniProt P07858)
Assay: Enzyme inhibition kinetics

Substance | Ki (pH 4.0) [nM] | Ki (pH 6.0) [nM]
Cathepsin B, mature enzyme (wild type) | 82 | 3.7
Cathepsin B His110Ala mutant H110A | 2 | 
